Measurements taken from patent US20260151494A1 (ARO BIOTHERAPEUTICS, published 2026).

Columns and labels:
[1] = molecular target: T1, human CD71 extracellular domain (human, UniProt P02786 89-760); experiment: primary ELISA; signal over HSA control; for RLU: test concentration or dose not given here
T1 construct: also called hCD71; CD71-ECD

[2] = molecular target: T2, human apical domain of CD71 (human, UniProt P02786 189-383, limits assumed); experiment: primary ELISA; signal over HSA control; for RLU: test concentration or dose not given here
T2 construct: domain: apical domain
T2 sequence (P02786 189-383 limits assumed): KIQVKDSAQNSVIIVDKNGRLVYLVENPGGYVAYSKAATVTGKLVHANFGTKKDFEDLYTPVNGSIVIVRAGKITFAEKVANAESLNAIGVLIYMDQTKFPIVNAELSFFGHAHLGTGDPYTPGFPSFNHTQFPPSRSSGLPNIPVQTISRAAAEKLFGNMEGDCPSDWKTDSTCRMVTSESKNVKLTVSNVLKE

[3] = molecular target: T1, human CD71 extracellular domain; experiment: primary ELISA; note: test concentration or dose not given here
[4] = molecular target: T2, human apical domain of CD71; experiment: primary ELISA; note: test concentration or dose not given here

T1 sequence (P02786 89-760): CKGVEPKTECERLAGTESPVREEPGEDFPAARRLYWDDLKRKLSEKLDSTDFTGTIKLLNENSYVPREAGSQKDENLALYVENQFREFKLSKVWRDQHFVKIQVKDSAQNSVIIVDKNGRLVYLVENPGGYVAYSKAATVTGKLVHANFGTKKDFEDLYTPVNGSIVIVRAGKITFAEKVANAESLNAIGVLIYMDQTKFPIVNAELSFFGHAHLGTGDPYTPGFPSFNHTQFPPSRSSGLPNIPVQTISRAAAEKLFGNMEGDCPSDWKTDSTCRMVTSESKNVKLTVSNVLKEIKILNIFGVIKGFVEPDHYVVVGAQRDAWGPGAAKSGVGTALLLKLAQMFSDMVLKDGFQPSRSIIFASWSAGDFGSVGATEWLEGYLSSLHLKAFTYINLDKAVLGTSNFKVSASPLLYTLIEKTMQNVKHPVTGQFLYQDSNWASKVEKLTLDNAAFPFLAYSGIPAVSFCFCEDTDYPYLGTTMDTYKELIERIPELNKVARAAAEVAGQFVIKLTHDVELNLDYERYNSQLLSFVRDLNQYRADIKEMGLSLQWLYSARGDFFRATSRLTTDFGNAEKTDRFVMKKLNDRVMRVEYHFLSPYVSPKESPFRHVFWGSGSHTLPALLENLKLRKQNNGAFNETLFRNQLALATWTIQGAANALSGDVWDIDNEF

hCD71:HSA [1] [ratio]	Apical domain:HSA [2] [ratio]	RLU [3] [RLU]	RLU [4] [RLU]	Binder
108	163	2.78e+06	4.19e+06	CD71-binding FN3 domain SEQ ID NO 391 (designed binder) MLPAPKNLIVSRVTEDSARLSWTAPDAAFDSFFIGYLEPQPPGEAISLYVPGSERSYDLTGLKPGTEYNVTIQGVKGGFPSDPLQAIFTT
402	495	3.2e+06	3.93e+06	CD71-binding FN3 domain SEQ ID NO 420 (designed binder) MLPAPKNLVVSRVTEDSARLSWTAPDAAFDSFFIGYLEPQPPGEAIHLQVPGSERSYDLTGLKPGTEYNVTIHGVKGGIPSMPLSAKFTT
501	516	3.51e+06	3.61e+06	CD71-binding FN3 domain SEQ ID NO 415 (designed binder) MLPAPKNLVVSRVTEDSARLSWTAPDAAFDSFFIGYLEPQPPGEAIHLQVPGSERSYDLTGLKPGTEYNVTIQGVKGGFPSMPLSAIFTT
86	79	6.71e+06	6.18e+06	CD71-binding FN3 domain SEQ ID NO 414 (designed binder) MLPAPKNLVVSRVTEDSARLSWTAPDAAFDSFFIGYLEPQPPGEAIHLYVPGSERSYDLTGLKPGTEYNVTIQGVKGGFPSHPLIANFTT
225	284	4.91e+06	6.2e+06	CD71-binding FN3 domain SEQ ID NO 409 (designed binder) MLPAPKNLVVSRVTEDSARLSWTAPDAAFDSFFIGYLEPQPPGEAIHLFVPGSERSYDLTGLKPGTEYNVTIQGVKGGFPSNPLSAQFTT
297	255	5.88e+06	5.04e+06	CD71-binding FN3 domain SEQ ID NO 399 (designed binder) MLPAPKNLVVSRVTEDSARLSWTAPDAAFDSFFIGYLEPQPPGEAITLYVPGSERSYDLTGLKPGTEYNVTIQGVKGGFPSTPLTATFTT
247	347	4.44e+06	6.23e+06	CD71-binding FN3 domain SEQ ID NO 425 (designed binder) MLPAPKNLVVSRVTEDSARLSWTAPDAAFDSFFIGYLEPQPPGEAIGLLVPGSERSYDLTGLKPGTEYNVTIQGVKGGFPSNPLSAIFTT
41	42	5.64e+06	5.82e+06	CD71-binding FN3 domain SEQ ID NO 401 (designed binder) MLPAPKNLVVSRVTEDSARLSWTAPDAAFDSFFIGYLEPQPPGEAIALWVPGSERSYDLTGLKPGTEYNITIQGVKGGFPSMPLVANFTT
108	193	1.95e+06	3.47e+06	CD71-binding FN3 domain SEQ ID NO 405 (designed binder) MLPAPKNLVVSRVTEDSARLSWTAPDAAFDSFFIGYLEPQPPGEAIHLWVPGSERSYDLTGLKPGTEYNVTIQGVKGGFPSLPLSAFFTT
237	194	4.77e+06	3.9e+06	CD71-binding FN3 domain SEQ ID NO 392 (designed binder) MLPAPKNLVVSRVTEDSARLSWTAPDAAFDSFFIGYLEPQPPGEAIHLGVPGSERSYDLTGLKPGTEYNVTIQGVKGGFPSLPLVATFTT
54	52	6.6e+06	6.32e+06	CD71-binding FN3 domain SEQ ID NO 416 (designed binder) MLPAPKNLVVSRVTEDSARLSWTAPDAAFDSFFIGYLEPQPPGEAIALYVPGSERSYDLTGLKPGTEYNVTIQGVKGGFPSLPLVATFTT
261	318	5.23e+06	6.36e+06	CD71-binding FN3 domain SEQ ID NO 411 (designed binder) MLPAPKNLVVSRVTEDSARLSWTAPDAAFDSFFIGYLEPQPPGEAISLFVPGSERSYDLTGLKPGTEYNVTIQGVKGGFPSVPLSATFTT
287	370	3.86e+06	4.98e+06	CD71-binding FN3 domain SEQ ID NO 413 (designed binder) MLPAPKNLVVSRVTEDSARLSWTAPDAAFDSFFIGYLEPQPPGEAIYLRVPGSERSYDLTGLKPGTEYNVTIQGVKGGFPSAPLHAHFTT
171	340	2.97e+06	5.88e+06	CD71-binding FN3 domain SEQ ID NO 422 (designed binder) MLPAPKNLVVSRVTEDSARLSWTAPDAAFDSFFIGYLEPQPPGEAISLLVPGSERSYDLTGLKPGTEYNVTIQGVKGGFPSHPLDASFTT
122	146	4.72e+06	5.66e+06	CD71-binding FN3 domain SEQ ID NO 404 (designed binder) MLPAPKNLVVSRVTEDSARLSWTAPDAAFDSFFIGYLEPQPPGEAIHLLVPGSERSYDLTGLKPGTEYNVTIQGVKGGFPSEPLLAIVTT
218	430	2.86e+06	5.66e+06	CD71-binding FN3 domain SEQ ID NO 394 (designed binder) MLPAPKNLVVSRVTEDSARLSWTAPDAAFDSFFIGYLEPQPPGEAIYLLVPGSERSYDLTGLKPGTEYNVTIQGVKGGFPSTPLEASFTT
132	129	2.12e+06	2.07e+06	CD71-binding FN3 domain SEQ ID NO 398 (designed binder) MLPAPKNLVVSRVTEDSARLSWTAPDAAFDSFFIGYLEPQPPGEAIYLTVPGSERSYDLTGLKPGTEYNVTIQGVKGGFPSKPLTANFTT
117	155	3.9e+06	5.16e+06	CD71-binding FN3 domain SEQ ID NO 424 (designed binder) MLPAPKNLVVSRVTEDSARLSWTAPDAAFDSFFIGYLEPQPPGEAIHLIVPGSERSYDLTGLKPGTEYNVTIQGVKGGFPSDPLDASFTT
305	417	4.51e+06	6.17e+06	CD71-binding FN3 domain SEQ ID NO 417 (designed binder) MLPAPKNLVVSRVTEDSARLSWTAPDAAFDSFFIGYLEPQPPGEAIQLFVPGSERSYDLTGLKPGTEYNVTIQGVKGGFPSDPLVASFTT
165	183	2.23e+06	2.47e+06	CD71-binding FN3 domain SEQ ID NO 396 (designed binder) MLPAPKNLVVSRVTEDSARLSWTAPDAAFDSFFIGYLEPQPPGEAIYLTVPGSERSYDLTGLKPGTEYNVTIQGVKGGFPSMPLSAIFTT
116	165	2.26e+06	3.23e+06	CD71-binding FN3 domain SEQ ID NO 408 (designed binder) MLPAPKNLVVSRVTEDSARLSWTAPDAAFDSFFIGYLEPQPPGEAIGLWVPGSERSYDLTGLKPGTEYNVTIQGVKGGFPSMPLSAIFTT
112	153	4.37e+06	6e+06	CD71-binding FN3 domain SEQ ID NO 412 (designed binder) MLPAPKNLVVSRVTEDSARLSWTAPDAAFDSFFIGYLEPQPPGEAIGLLVPGSERSYDLTGLKPGTEYNVTIQGVKGGFPSHPLLAVFTT
211	269	3.6e+06	4.59e+06	CD71-binding FN3 domain SEQ ID NO 419 (designed binder) MLPAPKNLVVSRVTEDSARLSWTAPDAAFDSFFIGYLEPQPPGEAIALLVPGSERSYDLTGLKPGTEYNVTIQGVKGGFPSSPLNAYFTT
46	379	3.9e+06	3.2e+06	CD71-binding FN3 domain SEQ ID NO 410 (designed binder) MLPAPKNLVVSRVTEDSARLSWTAPDAAFDSFFIGYLEPQPPGEAIALWVPGSERSYDLTGLKPGTEYNVTIQGVKGGFPSQPLHAHFTT
13	176	4.43e+06	5.95e+06	CD71-binding FN3 domain SEQ ID NO 426 (designed binder) MLPAPKNLVVSRVTEDSARLSWTAPDAAFDSFFIGYLEPQPPGEAIFLLVPGSERSYDLTGLKPGTEYNVTIQGVKGGFPSMPLSAIFTT
141	163	5.67e+06	6.54e+06	CD71-binding FN3 domain SEQ ID NO 400 (designed binder) MLPAPKNLVVSRVTEDSARLSWTAPDAAFDSFFIGYLEPQPPGEAIHLFVPGSERSYDLTGLKPGTEYNVTIQGVKGGFPSGPLHATFTT
42	58	4.39e+06	6.09e+06	CD71-binding FN3 domain SEQ ID NO 393 (designed binder) MLPAPKNLVVSRVTEDSARLSWTAPDAAFDSFFIGYLEPQPPGEAIGLFVPGSERSYDLTGLKPGTEYNVTIQGVKGGFPSLPLQAHFTT
58	57	6.63e+06	6.56e+06	CD71-binding FN3 domain SEQ ID NO 423 (designed binder) MLPAPKNLVVSRVTEDSARLSWTAPDAAFDSFFIGYLEPQPPGEAIALYVPGSERSYDLTGLKPGTEYNVTIQGVKGGFPSEPLVATFTT
167	398	1.76e+06	4.2e+06	CD71-binding FN3 domain SEQ ID NO 421 (designed binder, The cell prints '42') MLPAPKNLVVSRVTEDSARLSWTAPDAAFDSFFIGYLEPQPPGEAIDLWVPGSERSYDLTGLKPGTEYNVTIQGVKGGFPSMPLEAVFTT
72	92	5.11e+06	6.59e+06	CD71-binding FN3 domain SEQ ID NO 395 (designed binder) MLPAPKNLVVSRVTEDSARLSWTAPDTAFDSFFIGYLEPQPPGEAIGLFVPGSERSYDLTGLKPGTEYNVTIQGVKGGFPSDPLSAFFTT
